Results taken from the NTF2 design screens of Basanta et al. (2020).

Assay: protease stability score; higher = more stable; yeast display proteolysis, trypsin and chymotrypsin;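 note: log10 excess protease needed over predicted unfolded state with 0 meaning unfolded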

KEETVKTLWERMVEAVQKGDKEKVKKLGKDNVNARYNGKEYQGREELAKMLDKFKRKGAEFELKQVHVEGNTVKAEIEVHAAGTTQHVEVEAKYDGGQVEEVVVKISEEVQEMYKKG
protease stability score: 0.551

NEEQAKRLAEKWIRAVENGNVDELRKLGKPDMEVVAVNEKAKGVDTVHKYMKKFTDRGVELKVDRAKNTGGRVRYTVRARYGGQELTAEVVIDIKDGKVDKVEFRVDERQAQYVLRG
protease stability score: 0.812

NEEQLERVVKKWMEAVENADSKKVKELLKPDAEVQFGNRTVKGVDELVKYVKKFMDMGVELEVKEHKVEGGRARYQVVATYGGQTVTAQLTIQAKNGKIEKIEFRDNEEVQTLEKQG
protease stability score: 0.988

REEDVEKVIRTLLQAVHEGNPDKIRKYLKPDVEVQYADQKFKGPDEIMKLMRRMVRKGYRVQIKEQHVEGDTATTRADYQMGDKQVTVEVTAEAENGKLKHAEIKMSPQFEEIVKKG
protease stability score: 1.49

SEEELRKVVEKLLTYVIEGNPDDVKKYISPNVQVRYFDKTVQGRDEVMKFLRRAKKHGYRLQAKHVQLEGDRATTELDYQAGDQEATVRVEATVNGGRLEKLEVRDSPKVKKVLKDG
protease stability score: 1.56

SEEQVEKLVKVMFRAVQNGNKDEVKKYGKSSGQFVFGSDRVEGVDQYVKKLKEVHDRGVQFEFKKFQVKDDTVTMETEVHYGNKTFRVTAQAKYDGGTLDRARVEISEEAKEAYKQG
protease stability score: 0.368

SEERAKKVAKKLMEAFVKGNKDDAKDALQEDVQLHIAGTTYHGPKAVEKLIEFWQRVGVEVKVQEVRVKGNHVEIQTQVHLGDNTTTVRYKIQVEGDKVKKLQLNFSEEVFKQAKDG
protease stability score: 1.76

TEEDVLKVLETLMKAFFDGNPKEVKEMGKEDVKFQVGDQEVRGVDQMTKRVKEYRDQGIEFHLKRYKVEGDQVTAEAEVVMGDKKARVTAHYKADDGRVDETRVEMSDEAKKLFKHG
protease stability score: 0.432
